Experimental data published in publication PMC10628199, “Structural and functional investigations of syn-copalyl diphosphate synthase from Oryza sativa” (Communications Chemistry, 2023).
Where “and” joins values, the source holds several entries; their conditions need not be identical. Equal values may be shown once.

Assays:
[1] = target: OsCyc1^D367A mutant (in complex with the substrate GGPP) (Oryza sativa) (UniProt Q0JF02); test: cryo-EM structure; OsCyc1 D367A at 3 mg/mL in buffer B, soaked with 0.1 mM GGPP; hexamer used as initial model for 3D classification; 4.0 Å
[2] = target: T1, OsCyc1^69–767 (Oryza sativa, UniProt Q0JF02, D367A); details: 0.1 mM GGPP soaked; 20 mM Tris-HCl pH 8.0, 200 mM NaCl, 2 mM DTT, 5 mM MgCl2; active site between beta and gamma domains
T1 construct: gene CPS4
T1 sequence (Q0JF02 69-767 D367A): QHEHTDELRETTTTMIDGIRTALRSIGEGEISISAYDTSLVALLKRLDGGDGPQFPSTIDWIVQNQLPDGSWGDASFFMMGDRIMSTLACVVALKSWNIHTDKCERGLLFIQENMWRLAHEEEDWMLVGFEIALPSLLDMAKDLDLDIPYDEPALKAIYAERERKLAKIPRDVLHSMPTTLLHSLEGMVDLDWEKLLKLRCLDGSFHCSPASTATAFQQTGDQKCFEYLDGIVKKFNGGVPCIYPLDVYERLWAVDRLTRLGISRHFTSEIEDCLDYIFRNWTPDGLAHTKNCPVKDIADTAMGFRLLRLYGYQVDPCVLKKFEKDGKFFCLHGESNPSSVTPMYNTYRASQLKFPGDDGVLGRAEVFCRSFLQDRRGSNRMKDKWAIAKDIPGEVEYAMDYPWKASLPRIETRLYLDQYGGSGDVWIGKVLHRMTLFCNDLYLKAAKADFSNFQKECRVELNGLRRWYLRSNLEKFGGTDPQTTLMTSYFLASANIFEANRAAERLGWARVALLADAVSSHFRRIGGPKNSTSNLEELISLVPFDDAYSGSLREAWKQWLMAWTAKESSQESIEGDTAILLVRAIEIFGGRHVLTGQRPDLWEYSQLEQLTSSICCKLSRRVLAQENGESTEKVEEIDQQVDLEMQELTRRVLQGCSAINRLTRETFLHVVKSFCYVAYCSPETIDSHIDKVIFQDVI

[3] = target: T2, OsCyc1 (full-length) (Oryza sativa, UniProt Q0JF02); details: pH 8.0, 16 °C, 2 h, no added Mg2+; product syn-CPP
T2 construct: gene CPS4
T2 sequence (Q0JF02 whole entry): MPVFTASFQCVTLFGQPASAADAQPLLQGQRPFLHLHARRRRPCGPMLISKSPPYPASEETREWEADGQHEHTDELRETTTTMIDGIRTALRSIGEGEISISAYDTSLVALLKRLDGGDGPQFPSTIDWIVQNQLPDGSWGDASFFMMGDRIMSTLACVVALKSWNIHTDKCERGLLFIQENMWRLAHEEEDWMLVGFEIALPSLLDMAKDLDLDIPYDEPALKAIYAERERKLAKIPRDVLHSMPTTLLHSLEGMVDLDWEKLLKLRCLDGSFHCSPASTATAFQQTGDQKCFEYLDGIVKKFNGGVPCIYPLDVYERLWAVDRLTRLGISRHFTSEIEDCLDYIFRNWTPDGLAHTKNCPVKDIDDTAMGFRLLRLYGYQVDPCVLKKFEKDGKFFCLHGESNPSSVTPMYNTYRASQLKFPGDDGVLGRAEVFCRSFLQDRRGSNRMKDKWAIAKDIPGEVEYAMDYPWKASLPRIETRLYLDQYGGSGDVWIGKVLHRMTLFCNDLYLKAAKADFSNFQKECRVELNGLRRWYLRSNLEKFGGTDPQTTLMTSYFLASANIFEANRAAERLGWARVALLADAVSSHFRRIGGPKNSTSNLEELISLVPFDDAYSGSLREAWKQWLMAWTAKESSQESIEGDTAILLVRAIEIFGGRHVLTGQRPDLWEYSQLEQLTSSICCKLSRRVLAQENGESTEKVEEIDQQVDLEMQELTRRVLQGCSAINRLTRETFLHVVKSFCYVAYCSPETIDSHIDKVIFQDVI

[4] = target: the molecule itself; test: crystal structure; OsCyc1 69-767 at 10 mg/mL, hanging drop, 18 °C, 2% 1,4-dioxane, 0.1 M Tris pH 8.0, 15% PEG 3,350; space group P212121, hexamer in the asymmetric unit; 3.5 Å
[5] = target: the molecule itself; test: cryo-EM structure; WT OsCyc1 at 1.8 mg/mL in buffer B (20 mM Tris-HCl pH 8.0, 200 mM NaCl, 2 mM DTT, 5 mM MgCl2); dimers, tetramers and hexamers selected separately after 2D classification

In the case of “OsCyc1^D367A mutant (in complex with the substrate GGPP) (from UniProt Q0JF02 69-767) (enzyme)”, the stoichiometry N [1] is reported as 6.

CC(C)=CCC/C(C)=C/CC/C(C)=C/CC/C(C)=C/COP(=O)(O)OP(=O)(O)O [GGPP] was tested, and the “cryo-EM structure of the complex, 4.0 A” value [2] was “cryo-EM structure of the OsCyc1^D367A mutant in complex with substrate GGPP” and the “GC-MS of dephosphorylated product” value [3] was “OsCyc1 catalyzes GGPP to form syn-CPP”.

B1: OsCyc1^69–767 (N-terminal truncation variant of syn-copalyl diphosphate synthase from Oryza sativa) (enzyme, UniProt Q0JF02 69-767, looked up)
chain: QHEHTDELRETTTTMIDGIRTALRSIGEGEISISAYDTSLVALLKRLDGGDGPQFPSTIDWIVQNQLPDGSWGDASFFMMGDRIMSTLACVVALKSWNIHTDKCERGLLFIQENMWRLAHEEEDWMLVGFEIALPSLLDMAKDLDLDIPYDEPALKAIYAERERKLAKIPRDVLHSMPTTLLHSLEGMVDLDWEKLLKLRCLDGSFHCSPASTATAFQQTGDQKCFEYLDGIVKKFNGGVPCIYPLDVYERLWAVDRLTRLGISRHFTSEIEDCLDYIFRNWTPDGLAHTKNCPVKDIDDTAMGFRLLRLYGYQVDPCVLKKFEKDGKFFCLHGESNPSSVTPMYNTYRASQLKFPGDDGVLGRAEVFCRSFLQDRRGSNRMKDKWAIAKDIPGEVEYAMDYPWKASLPRIETRLYLDQYGGSGDVWIGKVLHRMTLFCNDLYLKAAKADFSNFQKECRVELNGLRRWYLRSNLEKFGGTDPQTTLMTSYFLASANIFEANRAAERLGWARVALLADAVSSHFRRIGGPKNSTSNLEELISLVPFDDAYSGSLREAWKQWLMAWTAKESSQESIEGDTAILLVRAIEIFGGRHVLTGQRPDLWEYSQLEQLTSSICCKLSRRVLAQENGESTEKVEEIDQQVDLEMQELTRRVLQGCSAINRLTRETFLHVVKSFCYVAYCSPETIDSHIDKVIFQDVI
notes: plastid targeting peptide removed; codon-optimized synthetic gene; monomer 80.8 kDa; Cloned in pET-24a(+) between NdeI and XhoI 'including a His-tag'; this cloning would usually give a C-terminal His6 (surmise); also called truncated OsCyc1; pseudo-mature protein
With B1 the “stoichiometry N” value [4] was 6.

B2: OsCyc1, wild type, as used for cryo-EM (enzyme, Oryza sativa)
chain: LISKSPPYPASEETREWEADGQHEHTDELRETTTTMIDGIRTALRSIGEGEISISAYDTSLVALLKRLDGGDGPQFPSTIDWIVQNQLPDGSWGDASFFMMGDRIMSTLACVVALKSWNIHTDKCERGLLFIQENMWRLAHEEEDWMLVGFEIALPSLLDMAKDLDLDIPYDEPALKAIYAERERKLAKIPRDVLHSMPTTLLHSLEGMVDLDWEKLLKLRCLDGSFHCSPASTATAFQQTGDQKCFEYLDGIVKKFNGGVPCIYPLDVYERLWAVDRLTRLGISRHFTSEIEDCLDYIFRNWTPDGLAHTKNCPVKDIDDTAMGFRLLRLYGYQVDPCVLKKFEKDGKFFCLHGESNPSSVTPMYNTYRASQLKFPGDDGVLGRAEVFCRSFLQDRRGSNRMKDKWAIAKDIPGEVEYAMDYPWKASLPRIETRLYLDQYGGSGDVWIGKVLHRMTLFCNDLYLKAAKADFSNFQKECRVELNGLRRWYLRSNLEKFGGTDPQTTLMTSYFLASANIFEANRAAERLGWARVALLADAVSSHFRRIGGPKNSTSNLEELISLVPFDDAYSGSLREAWKQWLMAWTAKESSQESIEGDTAILLVRAIEIFGGRHVLTGQRPDLWEYSQLEQLTSSICCKLSRRVLAQENGESTEKVEEIDQQVDLEMQELTRRVLQGCSAINRLTRETFLHVVKSFCYVAYCSPETIDSHIDKVIFQDVI
notes: syn-copalyl diphosphate synthase OsCyc1 (OsCPS4), Oryza sativa, wild type; the cryo-EM methods say only 'OsCyc1'); the deposited entries tell the construct; Probably the same protein as m1 or m2; also called WT OsCyc1; source: E. coli BL21(DE3), purified; in buffer B
In the case of B2, the “stoichiometry N” value [5] is reported as 2 and 4 and 6.
